Our source for the stoichiometry N values is article PMC10802454.

For orientation: stoichiometry N means a count of units in the complex or per binding partner.

The experiment concerns the target AriA (Escherichia coli strain B185). In words: cryo-EM structure.

AriA (natural protein) returned a stoichiometry N of 6.
